Patent US6084072A, “Purified lectin and methods of use” (The Regents of the University of Michigan, priority 1993, dated 2000)
Several values for one entry are separate records, joined by “and”; a condition that tells them apart may be missing. Identical values can stand only once.

Columns and labels:
amaranthin = amaranthin (Amaranthus caudatus, UniProt Q71QF2); test: Precipitation of amaranthin by glycoproteins and glycoconjugates, native or glycosidase treated; format: binding; details: untreated glycoprotein or glycoconjugate; 80 μg amaranthin
Method: Glycosidase digestions, and in particular exo-β-galactosidase digestions were carried out for 9 hours at 37° C. in 0.1 M sodium citrate, pH 4.3 using 0.1 unit of enzyme/μmol of terminal galactosyl group. Endo-α-N-acetylgalactosaminidase treatment of asialo-ovine submaxillary mucin was done as described in Sadler, J. E., Rearick, J. L., Paulson, J. C., and Hill, R. L. (1979). GSC Exo-α-N-acetylgalactosaminidase digestion of asialo-ovine submaxillary mucin was carried out according to the recommendations of Genzyme of Boston, Mass. Glycoproteins were analyzed for carbohydrate composition, before and after glycosidase treatment, as described.
Precipitation assays were conducted in 1.5 ml centrifuge tubes by the method of So and Goldstein. Indicated amounts of glycoprotein were added to 80 μg of amaranthin, and the total volume was adjusted to 250 μl with phosphate buffered saline. The tubes were incubated at 37° C. and then kept at 4° C. for 2 days. The precipitates were centrifuged, washed with cold Phosphate buffered saline, dissolved in 0.05 N NaOH and analyzed for protein by the method of Lowery et al. using bovine serum albumin as the standard. […] Inhibition was determined relative to the amount of precipitate formed in the control with no sugar added. […]

colonic adenocarcinoma = format: binding, human; details: cancer specimens
[1] = system: human red blood cells (A, B, and O); details: see Lotan; cited from earlier work
[2] = system: normal colonic epithelium; format: binding, human
HNPCC tissues = test: Lectin histochemistry, HNPCC rectal biopsies; format: binding, human; details: biotinylated ACA 10 μg/mL or PNA 20 μg/mL
Text: Rectal biopsies were obtained from individuals who were first degree relatives of patients with hereditary nonpolyposis colorectal cancer (HNPCC) as identified by H. T. Lynch, M.D. These patients were the siblings or offspring of index patients who fit the criteria for Lynch Syndrome I or II. See Drzeniek, Z., and Usowska, E. (1979) Arch. Immunol Ther. Exp. 27, 253-262. However, since there is no definitive genetic or phenotypic marker for this familial syndrome, it is not possible to be certain that these patients represent a single homogenous genetic abnormality. The biopsies were fixed in formalin, and embedded in paraffin for tissue sectioning.
(§1) Four micron paraffin embedded tissue sections attached to glass slides were deparaffinized by serial incubations in xylene (twice), absolute ethanol (thrice), 95% ethanol, 70% ethanol, water and finally equilibrated in phosphate buffered saline (PBS), pH 7.0, containing 0.1% bovine serum albumin (BSA) commercially available from Sigma Corp of St. Louis, Mo. The slides were blotted dry adjacent to the tissue sections, and biotinylated lectin was added at a concentration of 10 μg/ml (for ACA) and 20 μg/ml (for PNA) in a quantity sufficient to completely cover the hydrated tissue (100-2001 μl). The lectin was rinsed off after a 30 minute incubation by eight 2-second dips into phosphate buffered saline. […]

[3] = system: well differentiated colonic adenocarcinoma sections; test: Inhibition of lectin binding with hapten sugars on tissue sections; set-up: species or system human; key to Labeling score: 4^+: Maximum labeling of the brown reaction product; 0: No staining of the slide compared to control sections; 1^+: trace or weak staining definitely not seen on control slides; 2+3^+: stronger staining, but definitely less than maximal
Method: Four micron paraffin embedded tissue sections attached to glass slides were deparaffinized by serial incubations in xylene (twice), absolute ethanol (thrice), 95% ethanol, 70% ethanol, water and finally equilibrated in phosphate buffered saline (PBS), pH 7.0, containing 0.1% bovine serum albumin (BSA) commercially available from Sigma Corp of St. Louis, Mo. The slides were blotted dry adjacent to the tissue sections, and biotinylated lectin was added at a concentration of 10 μg/ml (for ACA) and 20 μg/ml (for PNA) in a quantity sufficient to completely cover the hydrated tissue (100-2001 μl). The lectin was rinsed off after a 30 minute incubation by eight 2-second dips into phosphate buffered saline. The slides were again blotted, and the tissue covered with Streptavidin-horseradish peroxidase (HRP) obtained from Zymed Laboratories, San Francisco, Calif. at a concentration of 10 μg/ml for 30 minutes. The slides were rinsed as mentioned above, and the pigmented reaction product developed by the addition of a freshly prepared chromogen reagent solution prepared within two hours of use as follows.
3,3'-diaminobenzidine was aliqotted at 5 mg/mL in 0.01 M (Tris) tris hydroxy methyl amino methane saline, pH 7.5 and frozen at -70° C. until use. For use, the aliquot was thawed, diluted 1:10 in 0.01 M (Tris) tris hydroxy methyl amino methane saline pH 7.5, and 3.3 μL of 30% H2 O2 were added to each 5 ml. This solution was allowed to stand for 10 min, and 100-200 μl was applied to the tissue sections that had been incubated earlier with biotinylated lectin and Streptavidin-HRP. After 10 min, the slides were rinsed with albumin-free phosphate buffered saline. The tissues were briefly counterstained for 50 seconds with Gill's #3 hematoxylin bovine serum albumin, commercially available from Sigma Corp. of St. Louis, Mo., rinsed with water, and serially dehydrated using graded alcohols and xylene, and embedded in Permount, a trademarked, commercially available product of Allied-Fischer Scientific of Livonia, Mich.
The specificity of lectin binding was evaluated by preincubating the biotinylated lectin with inhibitory hapten sugar for 1-2 hours prior to its application to the tissue. In each instance, the reagents were prepared so that the final concentration of lectin on the slide was either 10 or 20 μg/ml and the hapten sugar was as indicated in the results. Galactose, lactose, GalNAc, and galactose-β1-3N-acetylgalactosamine-α-O-benzyl (T-antigen-α-O-benzyl) were also obtained from Sigma Corp.
The stained sections were examined with a light microscope using a 25× and 40× objective lenses and 10× eyepiece. Evaluation of lectin binding required the use of several approaches. First, the binding specificity was confirmed by coincubation of lectin with hapten sugars known to bind the lectin maximally. Maximum labeling of the brown reaction product was arbitrarily assigned a score 4^+. See Boland, C. R., Bresalier, R. S., and Roberts, J. A. "Assay of lectin binding sites in colonic cancer-associated mucins: comparison of fluorescence microscopy with a quantitative chromatographic technique." J. Histochem. Cytochem., 36: 1329-1334, 1988. No staining of the slide compared to control sections (i.e., in which lectin was omitted from the staining procedure) was assigned a score of 0. Intermediate scores of 1^+ (trace or weak staining definitely not seen on control slides) and 2+3^+ (stronger staining, but definitely less than maximal) were assigned. […] See Boland. This method was used to confirm the binding specificity to known "positive" tissues and to evaluate changes in lectin binding after neuraminidase treatment.
Specimens of well differentiated colonic cancers were incubated with biotinylated lectins. Working concentrations on the slide were 10 μg/ml for ACA and 20 μg/ml for PNA. The hapten sugars galactose (Gal), N-acetylgalactosamine (GalNAc), and Galβ1,3GalNAc-α-O-benzyl (T-antigen) were used to inhibit lectin binding to the tissues. […]

FAP colonic tissue = test: Lectin histochemistry, familial adenomatous polyposis (FAP) colonic tissue; format: binding, human; details: biotinylated ACA 10 μg/mL or PNA 20 μg/mL
Text: Full thickness specimens of colonic tissue were obtained from colectomy specimens for familial adenomatous polyposis at Johns Hopkins Hospital, fixed in formalin, and embedded in paraffin for tissue sectioning. The tissue specimens contained normal-appearing flat mucosa familial adenomatous polyposis, or FAP-normal, as well as a polypoid, adenomatious tissue familial adenomatous polyposis, or FAP-abnormal.
as §1
Therefore, each individual crypt of Lieberkuhn was given a score from 0-4^+, and the labeling was expressed as a "weighted average", or, the sum of scores from 100 crypts, which could range from 0 (all crypts not labeled) to 400 (all 100 crypts maximally labeled). […]

amaranthin, sequence (Q71QF2 entry or part of it): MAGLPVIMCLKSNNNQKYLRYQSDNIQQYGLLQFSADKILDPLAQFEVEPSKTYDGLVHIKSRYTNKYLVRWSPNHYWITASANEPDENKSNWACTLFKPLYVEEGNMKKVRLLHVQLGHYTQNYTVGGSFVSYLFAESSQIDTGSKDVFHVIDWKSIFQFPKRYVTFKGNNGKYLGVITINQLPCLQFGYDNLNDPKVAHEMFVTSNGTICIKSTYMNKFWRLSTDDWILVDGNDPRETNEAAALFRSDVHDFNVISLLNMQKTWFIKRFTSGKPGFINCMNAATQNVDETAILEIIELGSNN

B1: asialoglycophorin: desialylated glycophorin (protein, UniProt P02724 20-150, looked up)
Glycophorin-A: LSTTEVAMHTSTSSSVTKSYISSQTNDTHKRDTYAATPRAHEVSEISVRTVYPPEEETGERVQLAHHFSEPEITLIIFGVMAGVIGTILLISYGIRRLIKKSPSDVKPLPSPDTDVPLSSVEIENPETSDQ
modifications: desialylated
notes: desialylated glycophorin
With B1 the “precipitation of amaranthin, in words” value (amaranthin) was “most active precipitating agent”.

B2: glycophorin: native glycophorin, major component of red blood cell membranes (protein, UniProt P02724 20-150, looked up)
Glycophorin-A: LSTTEVAMHTSTSSSVTKSYISSQTNDTHKRDTYAATPRAHEVSEISVRTVYPPEEETGERVQLAHHFSEPEITLIIFGVMAGVIGTILLISYGIRRLIKKSPSDVKPLPSPDTDVPLSSVEIENPETSDQ
For B2, the “precipitation of amaranthin, in words” value (amaranthin) was “small amount of precipitate”.

B3: PNA: peanut (Arachis hypogaea) agglutinin, T-antigen binding lectin (protein, UniProt P02872 24-273, looked up)
Galactose-binding lectin: AETVSFNFNSFSEGNPAINFQGDVTVLSNGNIQLTNLNKVNSVGRVLYAMPVRIWSSATGNVASFLTSFSFEMKDIKDYDPADGIIFFIAPEDTQIPAGSIGGGTLGVSDTKGAGHFVGVEFDTYSNSEYNDPPTDHVGIDVNSVDSVKTVPWNSVSGAVVKVTVIYDSSTKTLSVAVTNDNGDITTIAQVVDLKAKLPERVKFGFSASGSLGGRQIHLIRSWSFTSTLITTTRRSIDNNEKKIMNMASA
For B3, the “Effect of Newcastle disease virus neuraminidase on labeling” value (colonic adenocarcinoma) is given as “much less effect”, the “Effect of V. Cholerae neuraminidase on labeling” value (colonic adenocarcinoma) is given as “greatly enhanced” and the “agglutination of native A, B, or O red blood cells, in words” value [1] is given as “does not agglutinate”. The “Effect of neuraminidase treatment on labeling” value [2] was “did not produce an increase”, the “Labeling of normal colon in the tissue survey” value [2] was “No labeling” and the “Staining (global score 0-3+)” value ([2]; biotinylated ACA 10 μg/mL or PNA 20 μg/mL) was “does not bind and 0”. For the same molecule, the “Staining (global score 0-3+)” value (HNPCC tissues) was “rarely binds and 0 and 1^+”, the “GalNAc concentration that inhibited labeling” value [3] was at least 100 mM and the “T-antigen concentration that inhibited labeling” value [3] was at least 100 µM. For the same molecule, the “galactose concentration that inhibited labeling” value [3] was at least 10 mM, the “lactose concentration that inhibited labeling” value [3] was at least 10 mM and the Labeling score ([3]; Gal 2.5 mM) was “Trace”. It also gave a Labeling score ([3]; Gal 10 mM) of 0, a Labeling score ([3]; Gal 20 mM) of 0 and a Labeling score ([3]; Gal 100 mM) of 0. For the same molecule, the Labeling score ([3]; Gal 400 mM) was 0, the Labeling score ([3]; GalNAc 100 mM) was 0 and the Labeling score ([3]; GalNAc 250 mM) was 0. For the same molecule, the Labeling score ([3]; Lactose 200 mM) was 0, the Labeling score ([3]; Lactose 400 mM) was 0 and the Labeling score ([3]; T-antigen 100 μM) was 0. For the same molecule, the Labeling score ([3]; T-antigen 200 μM) was 0, the Labeling score ([3]; T-antigen 400 μM) was 0 and the “Staining (global score 0-3+)” value (FAP colonic tissue) was “does not bind and 0”.
